Measurements published in US7691605.

Target: Lz-linker-DHFR 106-187 (yeast) (UniProt P03069)
Test: cell-based or functional assay

Substance: Lz-linker-DHFR 1-105 (from UniProt P03069 253-274)
- cell survival in DHFR selection media lacking glycine, hypoxanthine and thymidine (-GHT): < 90 % viability
